The record followed here is patent publication US20180312587A1 (ADURO BIOTECH HOLDINGS EUROPE B V, published 2018).

For test [1], the target named is T1, human SIRPα variant 2 (human, UniProt P78324 31-504).
T1 construct: full length ORF on transfected CHO-K1 cells; also called hSIRPαV2; SIRPαV2
The test is described as follows: CELISA, CHO-K1 transfectants, domain exchange study. The text has this: (§1) Based on the fold of SIRPα, the extracellular region can be subdivided into three separate domains: the Ig-like (immunoglobulin-like) V-type (IgV), Ig-like C1-type (IgC1), and Ig-like C2-type (IgC2) domain. The IgV domain is also known as the ligand-binding N-terminal domain of SIRPα (which binds to CD47). The human SIRPαV1/β1 mutants were designed on the basis of the full length hSIRPαV1 sequence (SEQ ID NO: 33) and each individual Ig-like domain was substituted for the equivalent domain of human SIRPβ1 (SEQ ID NO: 37). The cDNAs encoding the constructs, hSIRPα-VβC1αC2α (SEQ ID NO: 55), hSIRPα-VαC1βC2α (SEQ ID NO: 57), and hSIRPα-VaC1αC2β (SEQ ID NO: 59) were synthesized (GeneArt) and subcloned into the pCI-neo vector. Binding of hSIRPα.50A to the exchange mutants was tested using CELISA. To this end, CHO-K1 cells were transiently transfected, using Lipofectamine 2000, with the pCI-neo vectors encoding hSIRPαV1, hSIRPαV2, hSIRPβ1, hSIRPα-VβC1αC2α, hSIRPα-VαC1βC2α, and hSIRPα-VαC1αC2β, respectively. The transfected cells were cultured at 37° C., 5% CO₂ and 95% humidity in medium (DMEM-F12 (Gibco) with 5% New Born Calf serum (Biowest) and Pen/Strep (Gibco)) until confluent. Subsequently, cells were trypsinized and seeded in 96-well flat-bottom tissue culture plates and cultured at 37° C., 5% CO₂ and 95% humidity in culture medium until confluent. Then, culture medium was removed and cells were incubated for 1 hour at 37° C., 5% CO₂ and 95% humidity with hSIRPα.50A and anti-hSIRPα clone SE5A5 antibodies. Next, cells were washed with PBS-T and incubated for 1 hour at 37° C., 5% CO₂ and 95% humidity with goat-anti-mouse IgG-HRP conjugate (Southern Biotech). After that, cells were washed three times with PBS-T and anti-hSIRPα immunoreactivity was visualized with TMB Stabilized Chromogen (Invitrogen). Reactions were stopped with 0.5 M H₂SO₄ and absorbances were read at 450 and 610 nm.

The target in test [2] is T2, hSIRPα-VαC1βC2α (human, UniProt P78324 31-504).
T2 construct: domain exchange mutant
T2 chain: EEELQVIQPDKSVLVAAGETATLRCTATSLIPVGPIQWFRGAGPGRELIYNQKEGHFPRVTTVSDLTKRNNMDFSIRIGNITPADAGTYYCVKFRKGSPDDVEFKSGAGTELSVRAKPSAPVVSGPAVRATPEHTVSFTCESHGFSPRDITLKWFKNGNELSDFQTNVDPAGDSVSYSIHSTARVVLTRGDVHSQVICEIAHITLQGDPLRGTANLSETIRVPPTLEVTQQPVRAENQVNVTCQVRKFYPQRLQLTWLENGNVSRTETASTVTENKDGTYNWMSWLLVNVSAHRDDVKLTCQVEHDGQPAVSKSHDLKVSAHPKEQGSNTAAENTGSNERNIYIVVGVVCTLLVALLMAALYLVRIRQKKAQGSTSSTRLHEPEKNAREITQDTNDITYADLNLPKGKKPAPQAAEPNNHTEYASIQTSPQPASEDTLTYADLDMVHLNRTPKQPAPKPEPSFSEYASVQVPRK
Described as above.
Excerpt: as §1

The target in test [3] is T3, hSIRPα-VαC1αC2β (human, UniProt P78324 31-504).
T3 construct: domain exchange mutant
T3 chain: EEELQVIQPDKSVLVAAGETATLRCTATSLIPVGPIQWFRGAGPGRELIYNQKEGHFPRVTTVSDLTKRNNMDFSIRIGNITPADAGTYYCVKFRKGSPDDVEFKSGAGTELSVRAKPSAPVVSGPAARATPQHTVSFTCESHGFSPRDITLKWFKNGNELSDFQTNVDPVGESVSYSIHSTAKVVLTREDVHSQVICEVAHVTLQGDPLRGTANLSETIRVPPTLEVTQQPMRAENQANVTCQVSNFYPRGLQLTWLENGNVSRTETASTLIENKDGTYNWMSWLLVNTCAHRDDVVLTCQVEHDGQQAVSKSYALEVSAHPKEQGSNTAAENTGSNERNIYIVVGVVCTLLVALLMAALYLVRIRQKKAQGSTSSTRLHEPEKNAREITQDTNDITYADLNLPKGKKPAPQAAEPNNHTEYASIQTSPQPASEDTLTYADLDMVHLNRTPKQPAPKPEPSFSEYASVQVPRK
The description is as above.
Excerpt: as §1

In test [4] the target is T4, human SIRPα variant 1 (human, UniProt P78324 31-504).
T4 construct: full length ORF on transfected CHO-K1 or HEK293 cells; entry includes the signal peptide; also called hSIRPαV1; SIRPαV1
Described as above.
Excerpt: as §1

Test [5] concerns the target T4, human SIRPα variant 1. The test is described as follows: flow cytometry, blockade of DyLight488-hCD47/Fc binding to U-937 cells. The procedure: hCD47 blockade was assessed by flow cytometry for the full panel of humanized hSIRPα.40A antibodies. To this end, the U-937 (ATCC CRL-1593.2) monocyte cell line was used as the source of hSIRPα in the assay. U-937 cells were seeded in 96-well round bottomed tissue culture plates and incubated for 45 minutes with FcR Blocking Reagent (Miltenyi Biotec) and the parental or humanized hSIRPα.40A antibody variants (20 μg/mL and dilutions thereof) in PBS/1% BSA at 4° C. […] After this labeling procedure, cells were washed two times, resuspended in PBS/1% BSA containing 0.1 μg/mL DAPI (BioLegend), and analysed by flow cytometry on the FACSVerse (BD Biosciences). Data were processed and analysed with FlowJo V10 software (FlowJo, LLC) and plotted using GraphPad Prism 6 (GraphPad Software, Inc.).
As depicted in FIG. 18 and the following Table 21, binding of recombinant hCD47 fused to an Fc domain of human IgG1 was monitored in the presence of increasing amounts of the humanized hSIRPα.40A antibody variants. Humanized hSIRPα.40A blocked the hSIRPα/hCD47 interaction, using the flow cytometry-based method described above. […] IC50 values represent the concentration at which half of the inhibition is observed.

B1: hSIRPα.50A (antibody, V domains shown)
VH: QVQLQQSGPELVKPGASVRISCKASGFTFTNYYIHWVKQRPGQGLEWIGWIYPGNVNTKYNEKFKAKATLTADKSSTTAYMQLSSLASEDSAVYFCARPTIIATDFDVWGAGTTVTVSS
VL: DIVMTQSHKFMSTSVGDRVNITCKASQGVGTAVGWYQQKPGQSPRLLIYWASTRHTGVPDRFTGSGSGTDFSLAISNVQSEDLADYFCQQYSTYPFTFGGGTNLEIK
notes: light chain constant domain not tied; also called mouse hSIRPα.50A; hSIRPα.50A.mIgG1
On to B1, for which the EC50 is 215 pM in test [1], 345 pM in test [2], 408 pM in test [3] and 321 pM in test [4].

B2: hSIRPα.40A (antibody, mouse IgG1, kappa, V domains shown)
VH: EVQFQQSGTVLARPGTSVKMSCKASGSTFTSYWMHWVKQGPGQGLQWIGAIYPVNNDTTYNQKFKGKAELTVVTSTSTAYMEVSSLTNEDSAVYYCTRSFYYSLDAAWFVYWGQGTLVTVSA
VL: DIQMTQSPSSLSASLGERVSLTCRASQDIGSRLNWLQQEPDGTIKRLIYATSSLDSGVPKRFSGSRSGSDYSLTISGLESEDFVDYYCLQYASSPFTFGGGTKLEINR
notes: mouse antibody, full chains without signal peptide; also called mouse hSIRPα.40A
Take B2: the IC50 in test [5] was determined as 1120 pM. This counts as single-digit nanomolar.

For orientation: EC50 means the midpoint of the concentration-response curve. High values mean a less potent agent, low ones a more potent agent. The IC50 is the midpoint of a concentration-inhibition curve. Read a low IC50 as greater potency in that assay.
